# Source: patent publication EP4631959A2, “NOVEL MINIGASTRIN-DERIVED CHOLECYSTOKININ 2 RECEPTOR BINDING MOLECULES FOR IMAGING AND TARGETED RADIOTHERAPY” (priority 2022, dated 2024)
# Like-named read-outs stand apart in the source and are kept apart here. Starred links: 1 amine or outer side, 2 acyl side, 3 side chain; linkers in the order of their positions; H or OH if unused. Non-standard residues stand in square brackets, D forms with d. Residues, ends and D or L forms follow the SMILES beside them. *: point of attachment. X3 = CC(C)(C)[Si](F)(c1ccc(C(=O)NC[C@@H](NC(=O)CN2CCN(CC(=O)O)CCN(CC(=O)O)CCN(CC(=O)O)CC2)C(=O)*)cc1)C(C)(C)C; X5 = O=C(O)CN1CCN(CC(=O)O)CCN([C@@H](CCC(=O)*)C(=O)O)CCN(CC(=O)O)CC1; DOTAGA = O=C(O)CN1CCN(CC(=O)O)CCN(C(CCC(=O)*)C(=O)O)CCN(CC(=O)O)CC1; Benzoyl(4-SiFtBu2) = CC(C)(C)[Si](F)(c1ccc(C(=O)*)cc1)C(C)(C)C; DOTA = O=C(O)CN1CCN(CC(=O)O)CCN(CC(=O)*)CCN(CC(=O)O)CC1; X4 = CC(C)(C)[Si](O)(c1ccc(C(=O)*)cc1)C(C)(C)C; NOTA = O=C(O)CN1CCN(CC(=O)O)CCN(CC(=O)*)CC1; d(γGlu) = O=C(O)[C@@H](CCC(=O)[*:2])N[*:1]; 1Nal = N[C@@H](Cc1cccc2ccccc12)C(=O)O; Hyp = O=C(O)[C@@H]1C[C@@H](O)CN1; NMeNle = CCCC[C@H](NC)C(=O)O; PEG4 = NCCOCCOCCOCCOCCC(=O)O; dOrn = NCCC[C@@H](N)C(=O)O; Nle = CCCC[C@H](N)C(=O)O; dDap = NC[C@@H](N)C(=O)O; AEEA = NCCOCCOCC(=O)O
# What was measured:
# [1] = target: T1, CCK-2R (Rattus norvegicus, UniProt P30553); assay: Determination of IC50: CCK-2R affinity on AR4-2J cells, competition with [^177Lu]Lu-DOTA-PP-F11N; format: binding; conditions: AR4-2J cells
# T1 construct: The CCK-2R expressing rat pancreatic tumor cells AR4-2J; host or cells: AR4-2J rat pancreatic tumor cells
# T1 sequence (P30553 1-452): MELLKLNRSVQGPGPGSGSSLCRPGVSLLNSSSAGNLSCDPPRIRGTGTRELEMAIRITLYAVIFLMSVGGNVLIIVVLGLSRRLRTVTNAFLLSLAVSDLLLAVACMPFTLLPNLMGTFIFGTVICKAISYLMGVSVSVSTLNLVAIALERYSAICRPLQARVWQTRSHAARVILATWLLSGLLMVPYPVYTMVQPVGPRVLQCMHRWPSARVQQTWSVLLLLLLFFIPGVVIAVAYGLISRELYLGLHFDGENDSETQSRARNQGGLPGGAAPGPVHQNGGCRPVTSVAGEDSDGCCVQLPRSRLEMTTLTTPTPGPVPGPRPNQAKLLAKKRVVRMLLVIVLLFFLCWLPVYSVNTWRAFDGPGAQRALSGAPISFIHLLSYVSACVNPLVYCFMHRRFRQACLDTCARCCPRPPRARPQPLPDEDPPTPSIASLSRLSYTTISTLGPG
# Procedure: AR4-2J cells were harvested 24 ± 2 h before the experiment and seeded in 24-well plates (2.0 × 10^5 cells in 1 mL/well). After removal of the nutrient medium (RPMI 1640, 5 mM L-Gln, 5 mL non-essential amino acids (100×), 10% FCS), the cells were washed once with 500 µL PBS. Thereafter, 200 µL nutrient medium (5% BSA, v/v) were added. Next, 25 µL per well of solutions containing either nutrient medium (5% BSA, v/v) as control or the respective compound in increasing concentration (10^-10 - 10^-4 M), were added with subsequent addition of 25 µL [^177Lu]Lu-DOTA-PP-F11N (0.3 pmol/well).
# All experiments were performed in triplicate for each concentration. After 3 h incubation at 37 °C, the experiment was terminated by removal of the medium and consecutive rinsing with 300 µL PBS. The media of both steps were combined in one fraction and represent the amount of free radiolabeled reference. Afterwards, the cells were lysed with 300 µL of 1 M NaOH for at least 15 min and united with the 300 µL NaOH of the following washing step. Quantification of bound and free radiolabeled reference was accomplished in a γ-counter. IC50 determination for each conjugate was repeated twice.
# [2] = n-Octanol-PBS distribution coefficient (logD7.4); format: physicochemical; conditions: pH = 7.4, ^177Lu-labeled
# Procedure: Approximately 1 MBq of the labeled tracer was dissolved in 1 mL of a 1/1 mixture (v/v) of phosphate buffered saline (PBS, pH = 7.4) and n-octanol in an Eppendorf tube (1.5 mL). After vigorous mixing of the suspension for 3 min at rt, the vial was centrifuged at 9,000 rpm for 5 min (Biofuge 15, Heraeus Sepatech, Osterode, Germany) and 200 µL aliquots of both layers were measured in a γ-counter. The experiment was repeated at least five times.
# [3] = read-out: IC50 [nM] (n = 3), ^natLu-labeled, ^natLu-labeled
# [4] = ^natGa-labeled, read-out: IC50 [nM] (n = 3), ^natGa-labeled
Compound,"logD7.4 (n ≥ 5), ^177Lu-labeled [2]",other results
"CCCC[C@H](NC(=O)[C@H](Cc1c[nH]c2ccccc12)NC(=O)CNC(=O)[C@H](Cc1ccc(O)cc1)NC(=O)[C@H](C)NC(=O)CC[C@@H](NC(=O)CCCNC(=O)CC[C@@H](NC(=O)CCCNC(=O)CC[C@@H](NC(=O)CCCNC(=O)CC[C@@H](NC(=O)CCCNC(=O)[C@@H](CNC(=O)c1ccc([Si](F)(C(C)(C)C)C(C)(C)C)cc1)NC(=O)CN1CCN(CC(=O)O)CCN(CC(=O)O)CCN(CC(=O)O)CC1)C(=O)O)C(=O)O)C(=O)O)C(=O)O)C(=O)N[C@@H](CC(=O)O)C(=O)N[C@@H](Cc1ccccc1)C(N)=O [DOTA-MG-SiFA-47, DOTA-dap(SiFA)-(GABA-γ-glu)4-F11N]",−1.93 ± 0.08,"IC50 [1, 3]: 6.77 ± 1.01 nM"
"CCCC[C@H](NC(=O)[C@H](Cc1c[nH]c2ccccc12)NC(=O)CNC(=O)[C@H](Cc1ccc(O)cc1)NC(=O)[C@H](C)NC(=O)[C@@H](CCC(=O)O)NC(=O)[C@@H](CCC(=O)O)NC(=O)[C@@H](CCC(=O)O)NC(=O)[C@@H](CCC(=O)O)NC(=O)[C@@H](CCC(=O)O)NC(=O)[C@@H](CCC(=O)O)NC(=O)[C@@H](CNC(=O)c1ccc([Si](F)(C(C)(C)C)C(C)(C)C)cc1)NC(=O)CCC(C(=O)O)N1CCN(CC(=O)O)CCN(CC(=O)O)CCN(CC(=O)O)CC1)C(=O)N[C@@H](CC(=O)O)C(=O)N[C@@H](Cc1ccccc1)C(N)=O (some centres unmarked) [DOTAGA-MG-SiFA-11, DOTAGA-dap(SiFA)-F11N] ({DOTAGA}-[dDap](Benzoyl(4-SiFtBu2))[dE][dE][dE][dE][dE][dE]AYGW[Nle]DF-NH2)",−2.63 ± 0.08,"IC50 [1, 3]: 75.7 ± 10.7 nM"
"CCCC[C@@H](C(=O)N[C@@H](CC(=O)O)C(=O)N[C@@H](Cc1cccc2ccccc12)C(N)=O)N(C)C(=O)[C@H](Cc1c[nH]c2ccccc12)NC(=O)CNC(=O)CNC(=O)CNC(=O)CC[C@@H](NC(=O)CN1CCN(CC(=O)O)CCN(CC(=O)O)CCN(CC(=O)O)CC1)C(=O)O [DOTA-CCK-62, DOTA-γ-glu-(Gly)3-Trp-(N-Me)Nle-Asp-1-Nal-NH2] ({DOTA-d(γGlu)}-GGGW[NMeNle]D[1Nal]-NH2)",−2.66 ± 0.06,"IC50 ([1]; ^natLu-labeled, read-out: IC50 [nM] (n = 3), ^natLu-labeled): 8.2 ± 1.3 nM"
"CCCC[C@@H](C(=O)N[C@@H](CC(=O)O)C(=O)N[C@@H](Cc1cccc2ccccc12)C(N)=O)N(C)C(=O)[C@H](Cc1c[nH]c2ccccc12)NC(=O)CCOCCOCCOCCOCCNC(=O)CC[C@@H](NC(=O)[C@@H]1C[C@@H](O)CN1C(=O)[C@@H]1C[C@@H](O)CN1C(=O)[C@@H]1C[C@@H](O)CN1C(=O)[C@@H]1C[C@@H](O)CN1C(=O)[C@@H]1C[C@@H](O)CN1C(=O)[C@@H]1C[C@@H](O)CN1C(=O)CC[C@@H](NC(=O)[C@@H](CNC(=O)c1ccc([Si](O)(C(C)(C)C)C(C)(C)C)cc1)NC(=O)CN1CCN(CC(=O)O)CCN(CC(=O)O)CCN(CC(=O)O)CC1)C(=O)O)C(=O)O [DOTA-rhCCK-84.2, DOTA-dap(SiOH)-γ-glu-(Hyp)6-γ-glu-(PEG)3-Trp-(N-Me)Nle-Asp-1-Nal-NH2] ({DOTA}-[dDap](X4)[d(γGlu)][Hyp][Hyp][Hyp][Hyp][Hyp][Hyp][d(γGlu)][PEG4]W[NMeNle]D[1Nal]-NH2)",−2.21 ± 0.08,"IC50 [1, 3]: 13 ± 0.8 nM"
"CCCC[C@@H](C(=O)N[C@@H](CC(=O)O)C(=O)N[C@@H](Cc1cccc2ccccc12)C(N)=O)N(C)C(=O)[C@H](Cc1c[nH]c2ccccc12)NC(=O)COCCOCCNC(=O)CC[C@@H](NC(=O)CN1CCN(CC(=O)O)CCN(CC(=O)O)CCN(CC(=O)O)CC1)C(=O)O [DOTA-CCK-77, DOTA-γ-glu-PEG-Trp-(N-Me)Nle-Asp-1-Nal-NH2] ({DOTA-d(γGlu)-AEEA}-W[NMeNle]D[1Nal]-NH2)",−3.09 ± 0.06,"logD7.4 (n ≥ 5), ^177Lu-labeled ([2]; listed as [^177Lu]Lu-DOTA-CCK-77): < -3"
"CCCC[C@H](NC(=O)[C@H](Cc1c[nH]c2ccccc12)NC(=O)CNC(=O)[C@H](Cc1ccc(O)cc1)NC(=O)[C@H](C)NC(=O)CC[C@@H](NC(=O)CC[C@@H](NC(=O)CC[C@@H](NC(=O)CC[C@@H](NC(=O)CC[C@@H](NC(=O)CC[C@@H](NC(=O)CC[C@@H](NC(=O)[C@H](N)CCCCNC(=O)[C@@H](CNC(=O)c1ccc([Si](F)(C(C)(C)C)C(C)(C)C)cc1)NC(=O)CN1CCN(CC(=O)O)CCN(CC(=O)O)CCN(CC(=O)O)CC1)C(=O)O)C(=O)O)C(=O)O)C(=O)O)C(=O)O)C(=O)O)C(=O)O)C(=O)N[C@@H](CC(=O)O)C(=O)N[C@@H](Cc1ccccc1)C(N)=O [DOTA-MG-SiFA-30, DOTA-dap(SiFA)-γ-lys-(γ-glu)7-F11N]",−1.74 ± 0.03,–
"CCCC[C@H](NC(=O)[C@H](Cc1c[nH]c2ccccc12)NC(=O)CNC(=O)[C@H](Cc1ccc(O)cc1)NC(=O)[C@H](C)NC(=O)CC[C@@H](NC(=O)CC[C@@H](NC(=O)CC[C@@H](NC(=O)CC[C@@H](NC(=O)CC[C@@H](NC(=O)CC[C@@H](NC(=O)CC[C@@H](NC(=O)[C@H](N)CCCNC(=O)[C@@H](CNC(=O)c1ccc([Si](F)(C(C)(C)C)C(C)(C)C)cc1)NC(=O)CN1CCN(CC(=O)O)CCN(CC(=O)O)CCN(CC(=O)O)CC1)C(=O)O)C(=O)O)C(=O)O)C(=O)O)C(=O)O)C(=O)O)C(=O)O)C(=O)N[C@@H](CC(=O)O)C(=O)N[C@@H](Cc1ccccc1)C(N)=O [DOTA-MG-SiFA-28, DOTA-dap(SiFA)-γ-orn-(γ-glu)7-F11N]",−1.81 ± 0.10,–
"CCCC[C@H](NC(=O)[C@H](Cc1c[nH]c2ccccc12)NC(=O)CNC(=O)[C@H](Cc1ccc(O)cc1)NC(=O)[C@H](C)NC(=O)CC[C@@H](NC(=O)CC[C@@H](NC(=O)CC[C@@H](NC(=O)CC[C@@H](NC(=O)CC[C@@H](NC(=O)CC[C@@H](NC(=O)CC[C@@H](NC(=O)[C@H](N)CCCCNC(=O)[C@@H](CNC(=O)c1ccc([Si](F)(C(C)(C)C)C(C)(C)C)cc1)NC(=O)[C@H](N)CCCCNC(=O)CN1CCN(CC(=O)O)CCN(CC(=O)O)CCN(CC(=O)O)CC1)C(=O)O)C(=O)O)C(=O)O)C(=O)O)C(=O)O)C(=O)O)C(=O)O)C(=O)N[C@@H](CC(=O)O)C(=O)N[C@@H](Cc1ccccc1)C(N)=O [DOTA-MG-SiFA-31, DOTA-γ-lys-dap(SiFA)-γ-lys-(γ-glu)7-F11N]",−1.88 ± 0.10,–
"CCCC[C@@H](C(=O)N[C@@H](CC(=O)O)C(=O)N[C@@H](Cc1cccc2ccccc12)C(N)=O)N(C)C(=O)[C@H](Cc1c[nH]c2ccccc12)NC(=O)CCOCCOCCOCCOCCNC(=O)CC[C@@H](NC(=O)CN1CCN(CC(=O)O)CCN(CC(=O)O)CC1)C(=O)O [NOTA-CCK-66, NOTA-γ-glu-(PEG)3-Trp-(N-Me)Nle-Asp-1-Nal-NH2] ({NOTA-d(γGlu)-PEG4}-W[NMeNle]D[1Nal]-NH2)",–,"IC50 ([1]; [^19F]AlF-complexated, read-out: IC50 [nM] (n = 3), ^natAlF-labeled): 10.4 ± 0.9 nM; IC50 [1, 4]: 9.7 ± 1 nM"
"CCCC[C@@H](C(=O)N[C@@H](CC(=O)O)C(=O)N[C@@H](Cc1cccc2ccccc12)C(N)=O)N(C)C(=O)[C@H](Cc1c[nH]c2ccccc12)NC(=O)CCOCCOCCOCCOCCNC(=O)CC[C@@H](NC(=O)CC[C@@H](C(=O)O)N1CCN(CC(=O)O)CCN(CC(=O)O)CCN(CC(=O)O)CC1)C(=O)O [(S)-DOTAGA-CCK-66, (S)-DOTAGA-γ-glu-(PEG)3-Trp-(N-Me)Nle-Asp-1-Nal-NH2] ({X5-d(γGlu)-PEG4}-W[NMeNle]D[1Nal]-NH2)",–,"IC50 [1, 4]: 17.9 ± 2.7 nM"
"CCCC[C@H](NC(=O)[C@H](Cc1c[nH]c2ccccc12)NC(=O)CNC(=O)[C@H](Cc1ccc(O)cc1)NC(=O)[C@H](C)NC(=O)CC[C@@H](NC(=O)CC[C@@H](NC(=O)CC[C@@H](NC(=O)CC[C@@H](NC(=O)CC[C@@H](NC(=O)[C@H](N)CCCNC(=O)[C@@H](CNC(=O)c1ccc([Si](F)(C(C)(C)C)C(C)(C)C)cc1)NC(=O)CN1CCN(CC(=O)O)CCN(CC(=O)O)CCN(CC(=O)O)CC1)C(=O)O)C(=O)O)C(=O)O)C(=O)O)C(=O)O)C(=O)N[C@@H](CC(=O)O)C(=O)N[C@@H](Cc1ccccc1)C(N)=O [DOTA-MG-SiFA-27, DOTA-dap(SiFA)-γ-orn-(γ-glu)5-F11N] (H-[dOrn](X3)[d(γGlu)][d(γGlu)][d(γGlu)][d(γGlu)][d(γGlu)]AYGW[Nle]DF-NH2)",−1.90 ± 0.10,–
